Target: GluA2 flip receptor, unedited at the pore site (Q-containing), wild type (UniProt P19491)
Sequence of UniProt P19491 (P19491 other isoform, or with tags, fused parts or gaps): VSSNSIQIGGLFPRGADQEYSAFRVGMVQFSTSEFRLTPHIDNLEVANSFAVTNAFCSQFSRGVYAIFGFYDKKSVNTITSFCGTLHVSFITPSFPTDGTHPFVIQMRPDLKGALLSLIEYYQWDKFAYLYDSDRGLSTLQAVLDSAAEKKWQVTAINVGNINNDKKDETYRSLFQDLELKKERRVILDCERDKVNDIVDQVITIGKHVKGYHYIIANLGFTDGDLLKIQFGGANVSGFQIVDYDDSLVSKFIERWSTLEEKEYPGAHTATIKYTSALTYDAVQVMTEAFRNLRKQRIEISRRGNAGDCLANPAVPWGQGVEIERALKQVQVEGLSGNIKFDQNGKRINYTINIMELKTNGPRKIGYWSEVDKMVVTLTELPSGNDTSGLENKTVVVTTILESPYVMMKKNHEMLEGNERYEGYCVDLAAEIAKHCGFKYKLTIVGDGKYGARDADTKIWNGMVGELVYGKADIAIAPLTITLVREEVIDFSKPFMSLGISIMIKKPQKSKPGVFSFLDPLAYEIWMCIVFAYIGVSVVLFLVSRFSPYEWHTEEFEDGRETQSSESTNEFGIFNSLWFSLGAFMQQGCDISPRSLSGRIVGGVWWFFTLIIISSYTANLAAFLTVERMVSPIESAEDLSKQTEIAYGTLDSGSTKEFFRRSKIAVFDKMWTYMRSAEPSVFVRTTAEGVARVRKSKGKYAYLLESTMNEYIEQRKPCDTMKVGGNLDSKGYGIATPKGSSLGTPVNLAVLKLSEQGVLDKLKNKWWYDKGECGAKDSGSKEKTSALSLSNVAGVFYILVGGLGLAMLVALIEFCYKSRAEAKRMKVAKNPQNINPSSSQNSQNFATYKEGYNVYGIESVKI

- coupling energy of a thermodynamic cycle (γ2 wild type or L2 GS with GluA2 wild type or GAG/GSG), superactivation during 7 s of 10 mM glutamate: 4.5 kJ/mol
B1: TARP γ2 (Stargazin), mouse, wild type (natural protein)
chain: MGLFDRGVQMLLTTVGAFAAFSLMTIAVGTDYWLYSRGVCKTKSVSENETSKKNEEVMTHSGLWRTCCLEGNFKGLCKQIDHFPEDADYEADTAEYFLRAVRASSIFPILSVILLFMGGLCIAASEFYKTRHNIILSAGIFFVSAGLSNIIGIIVYISANAGDPSKSDSKKNSYSYGWSFYFGALSFIIAEMVGVLAVHMFIDRHKQLRATARATDYLQASAITRIPSYRYRYQRRSRSSSRSTEPSHSRDASPVGVKGFNTLPSTEISMYTLSRDPLKAATTPTATYNSDRDNSFLQVHNCIQKDSKDSLHANTANRRTTPV

Source: publication PMC5599240
